How the values were obtained:
[1] = target: YibK(V139R)-SH2 (periplasmic, from SS-YibK(V139R)-SH2); test: cell-based or functional assay
[2] = target: YibK-SH2 (periplasmic, from SS-YibK-SH2); test: cell-based or functional assay
[3] = target: GCN4(7P14P)-SH2 (periplasmic, from SSPelB-GCN4(7P14P)-SH2, pMM95a) (yeast); test: cell-based or functional assay
[4] = target: the molecule itself; test: Western blot of whole-cell lysate with and without DTT
[5] = target: CadC1-155-Leu(16)TM-GCN4(7P14P) (pMM114a) (E. coli; yeast); test: cell-based or functional assay

YibK(V139R)-SH2 (periplasmic, from SS-YibK(V139R)-SH2)
PcadBA-directed LuxAB expression [1]: > 8 fold loss

YibK-SH2 (periplasmic, from SS-YibK-SH2)
PcadBA transcriptional activation (LuxAB luminescence) [2]: 66 fold | overnight phage propagation [2]: > 1000 fold

B1: Ω-graft-SH2 (periplasmic, from SS-Ω-graft-SH2) (scFv)
scFv: RDIVMTQSPSSLSASVGDRVTITCRSSTGAVTTSNYASWVQEKPGKLFKGLIGGTNNRAPGVPSRFSGSLIGDKATLTISSLQPEDFATYFCALWYSNHWVFGQGTKVELKRGGGGSGGGGSGGGGSSGGGSEVKLLESGGGLVQPGGSLKLSCAVSGFSLTDYGVNWVRQAPGRGLEWIGVIWGDGITDYNSALKDRFIISKDDCENTVYLQMSKVRSDDTALYYCVTGLFDYWGQGTLVTVSSGGSGGSGGSGGSGGSSLEKHSWYHGPVSRNAAEYLLSSGINGSFLVRESESSPGQRSISLRYEGRVYHYRINTASDGKLYVSSESRFNTLAELVHHHSTVADGLITTLHYPAPKR
PcadBA-driven LuxAB expression [3]: 30 fold | phage enrichment in mock selection (PACE 12 hours or two PANCE passages) [3]: > 1000 fold

B2: Ω-graft(L231F F232A)-SH2 (periplasmic, from SS-Ω-graft(L231F F232A)-SH2) (scFv)
scFv: RDIVMTQSPSSLSASVGDRVTITCRSSTGAVTTSNYASWVQEKPGKLFKGLIGGTNNRAPGVPSRFSGSLIGDKATLTISSLQPEDFATYFCALWYSNHWVFGQGTKVELKRGGGGSGGGGSGGGGSSGGGSEVKLLESGGGLVQPGGSLKLSCAVSGFSLTDYGVNWVRQAPGRGLEWIGVIWGDGITDYNSALKDRFIISKDDCENTVYLQMSKVRSDDTALYYCVTGFADYWGQGTLVTVSSGGSGGSGGSGGSGGSSLEKHSWYHGPVSRNAAEYLLSSGINGSFLVRESESSPGQRSISLRYEGRVYHYRINTASDGKLYVSSESRFNTLAELVHHHSTVADGLITTLHYPAPKR
PcadBA transcriptional activation (LuxAB) (fold decrease) [3]: 55

B3: YibK(V139R R146C)-SH2 (periplasmic, pMM103g) (other)
chain: MLDIVLYEPEIPQNTGNIIRLCANTGFRLHLIEPLGFTWDDKRLRRSGLDYHEFAEIKRHKTFEAFLESEKPKRLFALTTKGCPAHSQVKFKLGDYLMFGPETRGIPMSILNEMPMEQKIRIPMTANSRSMNLSNSVARTVYEAWCQLGYKGAVNLPEVKGGSGGSGGSGGSGGSSLEKHSWYHGPVSRNAAEYLLSSGINGSFLVRESESSPGQRSISLRYEGRVYHYRINTASDGKLYVSSESRFNTLAELVHHHSTVADGLITTLHYPAPKR
binding result [4]: binds

B4: Ω-graft scFv variant 37o5c2.1 (R1C F232A) (scFv)
scFv: CDIVMTQSPSSLSASVGDRVTITCRSSTGAVTTSNYASWVQEKPGKLFKGLIGGTNNRAPGVPSRFSGSLIGDKATLTISSLQPEDFATYFCALWYSNHWVFGQGTKVELKRGGGGSGGGGSGGGGSSGGGSEVKLLESGGGLVQPGGSLKLSCAVSGFSLTDYGVNWVRQAPGRGLEWIGVIWGDGITDYNSALKDRFIISKDDCENTVYLQMSKVRSDDTALYYCVTGLADYWGQGTLVTVSS
overnight phage enrichment [5]: 1000 fold

Reference: patent US20240271119A1 (BROAD INSTITUTE, published 2024)
